Data on seven molecules can be found in patent publication US12495796B2, “Compositions, methods, and applications of a synthetic surfactant” (1283581 B.C. LTD, priority 2019, dated 2025).

Data set [1] in a line: Retention of pesticide (Bifenazate) in leaves with RSN 1-6 mixture as adjuvant, GC/MS quantification. The class given is in vivo, Arabidopsis thaliana (columbia ecotype). Conditions: Floramite + RSN 1-6 mixture vs pesticide alone. How it is done: 12 four-week-old Arabidopsis thaliana (columbia ecotype) plants were used for the experiment. (6 control, 6 experimental) (FIG. 13).
Growth condition: plants were grown in soil at in 16-hour days/8-hour nights light cycle with temperatures of 22° C. Lighting was provided with fluorescent bulbs giving an average light intensity of 175 micromoles/meter^2 second. Seeds were cold treated (stratification) for 3 days at 4° C. after imbibition to synchronize germination
The experimental plants were applied with a mixture of Floramite® and RSN 1-6 mixture (50 μL of 10 mg/mL) directly to the leaves using a pipette. The control plants were applied with just the pesticide. Samples were collected at the end of 5 days and 10 days.
4 control leaves and 4 experimental leaves were collected at the end of 5 days and 10 days of application. The leaves were homogenized using liquid nitrogen and extracted using Methanol:Chloroform mix (2:1) (FIG. 14). […]
A GC/MS instrument (Thermo Focus GC, Polaris ion trap MS) with a DB-5 column was used for quantification of the pesticide. […]
Concentration of Bifenazate in control leaf sample −0.018 μg/μL (FIG. 15). […] Concentrations were calculated using the peak area of the internal standard compared to the peak area of the pesticide. The experimental leaf was calculated to have a 3.6 times the amount of Bifenazate when compared to the control leaf.

Another data set has as its system E. coli. As to the kind of experiment: Kirby Bauer antimicrobial assay (disk-diffusion) on E. coli culture plates. Format: cell-based, Escherichia coli. The following applies: 24 hours; for antimicrobial properties / radius of resistance to the E. coli colonies: 20 μL of 10 mg/mL on filter paper disc, 37° C.; for effect on E. coli colonies (kills or slows growth): conclusion from disk-diffusion; for resistance to E. coli (in words): growth of colonies near the filter paper disc. On the procedure:
Antimicrobial agents stop the growth or kill microorganisms such as Escherichia coli (E. coli). The Kirby Bauer antimicrobial assay or disk-diffusion method is used to test what antibiotic will fight against which bacteria strain.^17 The Kirby Bauer antimicrobial assay, is most commonly used to monitor the growth of bacteria growth around a disk, measuring the radius/diameter of the growth from the disk if a gap is present; this can be done in a time period as short as 24 hours or as long as 5 days.^18
RSN mixture was prepared using equal parts of each protein (RSN 1-6) in a concentration of 10 mg/mL and vortexed until combined.^22 E. coli culture plates were prepared and allowed to dry, small filter paper circles were placed on the plate, with a 20 μL of the RSN sample labeled RSN 1-6.
Once the protein was placed on the E. coli culture plates, the plates were placed into a new Brunswick Scientific Excella E24 Incubator Shaker set at 37° C., for 24 hours. After 24 hours the plates were taken out of the incubator shaker and observed.
(In agar diffusion tests the substance spreads into inoculated agar from a disc or well.)

Data set [2] in a line: Denaturing of ranaspumin proteins with increasing temperature, monitored by circular dichromium (CD). Format: physicochemical. The following applies: CD 200-300 nm, 0.25 mg/mL, 20-90° C. in 5° C. steps. On the procedure:
The secondary structure of ranaspumin proteins can be confirmed with CD to identify if there is a presence of an α-helix, β-sheets or random coils. The CD can also be used to monitor the denaturing of a protein structure by observing the intensity of the bands on the spectra. This experiment uses increasing temperature to determine when ranaspumin proteins start to denature in the secondary structure with the use of a CD spectrum. A 3 mL solution with a concentration of 0.25 mg/mL of RSN 1-6 was diluted from a range of 2.69 mg/mL-0.50 mg/mL stock solution. The Jasco 815 […], with Jasco temperature controller and a water bath attachment was used to analyze the RSN 2 protein structure. The initial temperature was set to 20° C., the wavelength was set to 200-300 nm and the temperature was increased by 5° C. after each measurement and allowing for 60 seconds of stability before recording the next measurement, in a temperature range of 20-90° C. A bank was run for a baseline before a 1.5 mL solution was run through the CD and the spectra were monitored for a change in intensity in the bands.

Regarding `COc1ccc(-c2ccccc2)cc1NNC(=O)OC(C)C` [Bifenazate], the “amount of Bifenazate in experimental leaf compared to control leaf” value in data set [1] (after 5 days) was 3.6 times; in data set [1] (after 10 days), 1.2 times.

B1: RSN 2: recombinant mature ranaspumin protein without signal peptide, Synthetic Amino Acid Sequence No. 2; main surfactant (protein, listed as Engystomops pustulosus)
chain: LILDGDLLKDKLKLPVIDNLFGKELLDKFQDDVKDKYGVDTKDLKILKTSEDKRFYYVSVDAGDGEKCKFKIRKDVDVPKMVGRKCRKDDDDDDGY
For B1, in the data set on E. coli, the antimicrobial properties entry is recorded as “presented antimicrobial properties”, the “radius of resistance to the E. coli colonies” value was 1.1 cm, the “effect on E. coli colonies (kills or slows growth)” value is listed as “kills the E. coli colonies” and the “resistance to E. coli (in words)” value is reported as “high resistance”. Moreover, in data set [2], the “temperature at which the protein starts to denature” value (shortened to “temperature … to denature”) was 70 °C.

B2: RSN 5: recombinant mature ranaspumin protein without signal peptide, Synthetic Amino Acid Sequence No. 5 (protein, listed as Engystomops pustulosus)
chain: GAPGGAAGPLLVLNILGSVVHETKPPEGVNLALKGIASSDSIASNGSVTGLAAKAIDGIRVSDFFKGHCSLTNGLNNPTWWKVDLKKSYKISSVFVTNRDDCCTERLLHAEIRIGSNPDHNHNPICAEVKTVASSNIGFCCGGMEGRYVSVSVPRKEQLSLCEVEVYGDLKKVLHCA
As for B2, in the data set on E. coli, the antimicrobial properties result is “presented antimicrobial properties”, the “radius of resistance to the E. coli colonies” value is reported as 0.7 cm, the “effect on E. coli colonies (kills or slows growth)” value is “slows the rate of the growth of the E. coli colonies” and the “resistance to E. coli (in words)” value is recorded as “moderate resistance”. In addition, the “temperature at which the protein fully denatures” value in data set [2] is 70 °C.

B3: RSN 1: recombinant mature ranaspumin protein without signal peptide, Synthetic Amino Acid Sequence No. 1 (protein, listed as Engystomops pustulosus)
chain: GGGNIGGGAKLGPEKPATPGIQDLLKSLLSVLNLSPPAIPEDAEAVSYRDAKNGKFRLIKIHLGGELYCHVKQIAGPILALPIVSDVVEVTGKECGKTEDDPLEDFPIP
B3: the antimicrobial properties entry with E. coli is recorded as “did not show any antimicrobial properties”. In data set [2], the “temperature at which the protein denatures further” value came out at 70 °C and the “temperature … to denature” value was 50 °C.

B4: RSN 4: recombinant mature ranaspumin protein without signal peptide, Synthetic Amino Acid Sequence No. 4 (protein, listed as Engystomops pustulosus)
chain: DRNLALDGRATMSSIWMDPDIRQSFLGVAMNGIDGNTDSVYFHGSCFHTGLDSPAWYRVDLLRTSKISSITITNRGDFGSRTNGAEIRIGDSLANNGNNNPRCALVTSIADGETRTFQCNNMVGRYVNIVLTGKTEFLHLCEVQIFGENLPRSFSCQYSNDGMITLLVSTRFMK
On to B4, for which the antimicrobial properties entry with E. coli is “did not show any antimicrobial properties”. Besides, in data set [2], the “temperature at which the protein denatures further” value was 90 °C and the “temperature … to denature” value is 50 °C.

B5: RSN 6: recombinant mature ranaspumin protein without signal peptide, Synthetic Amino Acid Sequence No. 6 (protein, listed as Engystomops pustulosus)
chain: ETLCIPGRMKQLDAGAGRVVAVKSNGDVYQLLENNWVQIPGKLIHVTVGPAGLWGVNKDKNIYKYVDNDWLQVDGLLNQIDAGGNRFVVGVNDNEDIFCLNQDQTTSNAVKLDYKGVDGKLKYYSSGGYGSWGVNAAYDIFYRRNVHPMSCQGTNWENVEGKLVMLEVAEDGSVYGVNYNGHVYKREGITAGNPMGTSWTYLKVDEKVRHVSYDRGVLYVVTIDDRIFRC
In the case of B5, in the data set on E. coli, the antimicrobial properties result is given as “did not show any antimicrobial properties”. For the same molecule, in data set [2], the “secondary structure staying intact up to” value was 30-39 °C, the slowly denatures until worked out at 90 °C and the “temperature … to denature” value stood at 40 °C.

B6: RSN 3: recombinant mature ranaspumin protein without signal peptide, Synthetic Amino Acid Sequence No. 3 (protein, listed as Engystomops pustulosus)
chain: IDPTGLVQILLLEQVVHKIPPGNINLARTGIATQDSDYTASAVPSEARLAIDGNRNSDFNQKSCSHTGGNEPAWWRLELKKKSKISVVVIAIRSDCCMDRFKGAELRIGNSQDATVNPICGKVSAVKGSNYLFCCDGMEGKYISVVIPDRHEFLSLCEVEVYGAKPIEGTHCK
In the case of B6, the antimicrobial properties result with E. coli is reported as “did not show any antimicrobial properties”. Further, in data set [2], the “temperature at which the protein fully denatures” value is 70 °C and the “temperature … to denature” value was found to be 70 °C.
